The RNAGym collection of RNA variant scans (doi:10.7554/elife.80360)

B1: Hairpin Ribozyme (parent)
chain: GUCCUCUUUCACGUGCGCGUGAAAGAGAGAAGUGAACCAGAGAAACACACGUUGUGGUAUAUUACCUGGUA

Variants of: B1
Test: self-cleavage, relative activity (ratio to wild type); higher = more cleavage; co-transcriptional

Variant	self-cleavage
GUCCUGUUUCACGUGCGCGUGAAAGAGAGAAGUGAACCAGGGAAACACACGUUGUGGUAUAUUACCUGGUA [C6G A41G]	0.47
GUCCUAUUUCACGUGCGCGUGAAAGAGAGAAGUGAACCAGAGAAACACACGUUGUGGUAUAUGACCUGGUA [C6A U63G]	0.191
GUCCUGUUUCACGUGCGCGUGAAAGAGAGAAGUGAACCAGAGAAACACACGUUGUGGUAUAUUACCUGGUG [C6G A71G]	0.574
GUCCUGUUUCACGUGCGCGUGAAAGAGAGGAGUGAACCAGAGAAACACACGUUGUGGUAUAUUACCUGGUA [C6G A30G]	0.14
GUCCUGUUUCACGUGCGCGUGAAAGAGAGCAGUGAACCAGAGAAACACACGUUGUGGUAUAUUACCUGGUA [C6G A30C]	0.156
GUCCUGUUUCGCGUGCGCGUGAAAGAGAGAAGUGAACCAGAGAAACACACGUUGUGGUAUAUUACCUGGUA [C6G A11G]	0.456
GUCCUGUUUCACGUGCGCGUGAAAGAGAGAAGUGAACUAGAGAAACACACGUUGUGGUAUAUUACCUGGUA [C6G C38U]	0.332
GUCCUGUUUCACGUGCGCGUGAAAGAGAGAAGUGAACGAGAGAAACACACGUUGUGGUAUAUUACCUGGUA [C6G C38G]	0.0998
GUCCUAUUUCACGUGCGCGUGAAAGAGAGAAGUGAACCAGAGAAACACACGUUGUGGUAUAUUACCUGGUU [C6A A71U]	0.423
GUCCUGUUUCACGUGCGCGUGAAAGAGAGAAGUGCACCAGAGAAACACACGUUGUGGUAUAUUACCUGGUA [C6G A35C]	0.499
GUCCUAUUUCACGUGCGCGUGAAAGAGAGAAGUGAACCAGAGAAACACACGUUGUGGUGUAUUACCUGGUA [C6A A59G]	0.178
GUCCUAUUUCACGUGCGCGUGAAAGAGAGAAGUGAACCAGAGAAACACACGUUGUGGUAUAUUACCUAGUA [C6A G68A]	0.176
GUCCUGUUUCACGUGCGCGUGAAAGAGAGAAGUGAACCAGAGAAACCCACGUUGUGGUAUAUUACCUGGUA [C6G A47C]	0.235
GUCCUGUUUCACGUGCGCGUGAACGAGAGAAGUGAACCAGAGAAACACACGUUGUGGUAUAUUACCUGGUA [C6G A24C]	0.192
GUCCUGUUUCACGUGCGCGUGAAGGAGAGAAGUGAACCAGAGAAACACACGUUGUGGUAUAUUACCUGGUA [C6G A24G]	0.337
GUCCUAUUUCACAUGCGCGUGAAAGAGAGAAGUGAACCAGAGAAACACACGUUGUGGUAUAUUACCUGGUA [C6A G13A]	0.494
GUCCUAUUUCACUUGCGCGUGAAAGAGAGAAGUGAACCAGAGAAACACACGUUGUGGUAUAUUACCUGGUA [C6A G13U]	0.592
GUCCUAUUUCAGGUGCGCGUGAAAGAGAGAAGUGAACCAGAGAAACACACGUUGUGGUAUAUUACCUGGUA [C6A C12G]	0.623
GUCCUAUUUCACGUGCGCGUGAAAAAGAGAAGUGAACCAGAGAAACACACGUUGUGGUAUAUUACCUGGUA [C6A G25A]	0.546

Variant	self-cleavage
GUCCUAUUUCACGUGCGCGUGAAAGAGAGAAGUGAACCAGAGAAACACGCGUUGUGGUAUAUUACCUGGUA [C6A A49G]	0.204
GUCCUAUUUCACGUGCGCGUGAAAGAGAGAAGUGAACCAGAGAAACACCCGUUGUGGUAUAUUACCUGGUA [C6A A49C]	0.112
GUCCUAUUUCACGUGCGCGUGAAAGAGAGAAGGGAACCAGAGAAACACACGUUGUGGUAUAUUACCUGGUA [C6A U33G]	0.149
GUCCUAUUUCACGUGCGCGUGAAAGAGAGAAGUGAACCAGAGAAACACACGUUGUGUUAUAUUACCUGGUA [C6A G57U]	0.246
GUCCUAUUUCACGUGCGCGUGAAAGAGAGAAGUGAACCAGAGAAACACACGUUGUGCUAUAUUACCUGGUA [C6A G57C]	0.0868
GUCCUAUUUCACGUGCGCGUGAAAGAGAGAAGUGAACCAGAGAAACACACGUUGUGAUAUAUUACCUGGUA [C6A G57A]	0.107
GUCCUAUUUCACGUGCGCGUGAAAGAGAGAAGUGAACCACAGAAACACACGUUGUGGUAUAUUACCUGGUA [C6A G40C]	0.109
GUCCUAUUUCACGUGCGCGUGAAAGAGAGAAGUGAACCAUAGAAACACACGUUGUGGUAUAUUACCUGGUA [C6A G40U]	0.103
GUCCUAUUUCACGUGCGCGUGAAAGAGAGAAGUGAACCAAAGAAACACACGUUGUGGUAUAUUACCUGGUA [C6A G40A]	0.236
GUCCUGUUUCACGUGCGCGUGAAAGAGAGAAGUGAACCAGAGAAACACACGUUGUGGUCUAUUACCUGGUA [C6G A59C]	0.0783
GUCCUGUUUCACGUGCGCGUGAAAGAGAGAAGUGAACCAGAGAAACACACGUUGUGGUGUAUUACCUGGUA [C6G A59G]	0.121
GUCCUAUUUCACGUGCGCGUGAAAGAGAGAAGUGAACCAGAGAAACACACGUUGUGGGAUAUUACCUGGUA [C6A U58G]	0.559
GUCCUGUUUCACGUGUGCGUGAAAGAGAGAAGUGAACCAGAGAAACACACGUUGUGGUAUAUUACCUGGUA [C6G C16U]	0.627
GUCCUGUUUCACGUGCGCGUGAAAGAGAGAAGUGAACCAGAGAAACACACGUUGUGGUAUAUUACCUGGUA [C6G]	0.521
GUCCUAUUUCACGUGCGCGUGAAAGAGAGAAGUGAACCAGAGAAACACACGUUAUGGUAUAUUACCUGGUA [C6A G54A]	0.342
GUCCUAUUUCACGUGCGCGUGAAAGAGAGAAGUGAACCAGAGAAACACACGUUUUGGUAUAUUACCUGGUA [C6A G54U]	0.379
GUCCUAUUUCACGUGCGCGUGAAAGAGAGAAGUGAACCAGAGAAACACACAUUGUGGUAUAUUACCUGGUA [C6A G51A]	0.765
GUCCUAUUUCACGUGCGCGUGAAAGAGAGAAGUGAACCAGAGAAACACACGAUGUGGUAUAUUACCUGGUA [C6A U52A]	0.588
GUCCUAUUUCACGUGCGCGUGAAAGAGAGAAGUGAACCAGAGAAACACACGCUGUGGUAUAUUACCUGGUA [C6A U52C]	0.619
